# B1: mRNA-splicing (parent)
# chain: AGUUGCUGCUGGGAGCUCCAGCACAGUGAAAUGGACAGAAGGGCAGAGCAA
# Variants of: B1
# Assay: exon inclusion enrichment index; higher = more inclusion; WT1 exon 5 minigene, HEK293
row,Variant,exon inclusion enrichment index
1,G5A U7C G8A U10C A31U U32A,0.229
2,G5A U7C G8A U10C A31U U32C,3.11
3,G5A U7C G8A U10C A31U U32G,1.32
4,G5A U7C G8A U10C A45C G46C,1.61
5,G5A U7C G8A U10C A45C G46U,1.12
6,G5A U7C G8A U10C A45C G46A,1.42
7,G5A U7C G8A U10C G11C,1.96
8,G5A U7C G8A U10C G11A,1.34
9,G5A U7C G8A U10C C18G C19A,2.92
10,G5A U7C G8A U10C C18G C19G,2.62
11,G5A U7C G8A U10C C18G C19U,0.528
12,G5A U7C G8A U10C C16G U17G,0.238
13,G5A U7C G8A U10C C16G U17A,2.77
14,G5A U7C G8A U10C C16G U17C,1.06
15,G5A U7C G8A U10C A47U,2
16,G5A U7C G8A U10C A47C,2.83
17,G5A U7C G8A U10C A47G,0.395
18,G5A U7C G8A U10C A37G G38A,2.19
19,G5A U7C G8A U10C A37G G38U,0.991
20,G5A U7C G8A U10C A37G G38C,2.62
21,G5A U7C G8A U10C C18U C19A,0.212
22,G5A U7C G8A U10C C18U C19G,0.804
23,G5A U7C G8A U10C C18U C19U,0.0421
24,G5A U7C G8A U10C C22U A23U,1.53

row,Variant,exon inclusion enrichment index
1,G5A U7C G8A U10C C22U A23C,1.42
2,G5A U7C G8A U10C C22U A23G,2.69
3,G5A U7C G8A U10C A39U A40U,1.02
4,G5A U7C G8A U10C A39U A40C,2.41
5,G5A U7C G8A U10C A39U A40G,0.575
6,G5A U7C G8A U10C A35C C36A,1.46
7,G5A U7C G8A U10C A35C C36G,2.06
8,G5A U7C G8A U10C A35C C36U,0.244
9,G5A U7C G8A U10C C24U A25G,3.39
10,G5A U7C G8A U10C C24U A25C,3.55
11,G5A U7C G8A U10C C24U A25U,2.36
12,G5A U7C G8A U10C A39G A40G,0.26
13,G5A U7C G8A U10C A39G A40C,2.53
14,G5A U7C G8A U10C A39G A40U,0.283
15,G5A U7C G8A U10C C44A A45C,3.95
16,G5A U7C G8A U10C C44A A45G,3.75
17,G5A U7C G8A U10C C44A A45U,4.02
18,G5A U7C G8A U10C C24U,0.763
19,G5A U7C G8A U10C C24G,2.53
20,G5A U7C G8A U10C C24A,2.26
21,G5A U7C G8A U10C C22U,2.11
22,G5A U7C G8A U10C C22G,3.37
23,G5A U7C G8A U10C C22A,2.32
24,G5A U7C G8A U10C C36G,1.55

row,Variant,exon inclusion enrichment index
1,G5A U7C G8A U10C C36U,0.719
2,G5A U7C G8A U10C C36A,1.85
3,G5A U7C G8A U10C A39G,1.33
4,G5A U7C G8A U10C A39C,0.541
5,G5A U7C G8A U10C A39U,0.113
6,G5A U7C G8A U10C A37C G38C,2.35
7,G5A U7C G8A U10C A37C G38A,2.05
8,G5A U7C G8A U10C A37C G38U,1.6
9,G5A U7C G8A U10C A37U,1.97
10,G5A U7C G8A U10C A37C,3.08
11,G5A U7C G8A U10C A37G,3.3
12,G5A U7C G8A U10C C44U,0.581
13,G5A U7C G8A U10C C44G,3.26
14,G5A U7C G8A U10C C44A,3.82
15,G5A U7C G8A U10C C19G A20C,2.4
16,G5A U7C G8A U10C C19G A20U,2.09
17,G5A U7C G8A U10C C19G A20G,1.34
18,G5A U7C G8A U10C A45G G46U,2.26
19,G5A U7C G8A U10C A45G G46A,4.51
20,G5A U7C G8A U10C A45G G46C,3.06
21,G5A U7C G8A U10C A45U,2.8
22,G5A U7C G8A U10C A45C,2.28
23,G5A U7C G8A U10C A45G,3.76
24,G5A U7C G8A U10C C19U A20G,0.888

row,Variant,exon inclusion enrichment index
1,G5A U7C G8A U10C C19U A20U,0.734
2,G5A U7C G8A U10C C19U A20C,1.64
3,G5A U7C G8A U10C C36G A37C,0.667
4,G5A U7C G8A U10C C36G A37U,1.08
5,G5A U7C G8A U10C C36G A37G,0.405
6,G5A U7C G8A U10C C36A A37C,2.61
7,G5A U7C G8A U10C C36A A37G,1.06
8,G5A U7C G8A U10C C36A A37U,1.07
9,G5A U7C G8A U10C A39C A40C,3.03
10,G5A U7C G8A U10C A39C A40G,2.18
11,G5A U7C G8A U10C A39C A40U,1.28
12,G5A U7C G8A U10C G11A G12A,0.934
13,G5A U7C G8A U10C G11A G12U,0.486
14,G5A U7C G8A U10C G11A G12C,0.699
15,G5A U7C G8A U10C A35C,0.917
16,G5A U7C G8A U10C A35G,0.89
17,G5A U7C G8A U10C A35U,0.475
18,G5A U7C G8A U10C A31U,2.07
19,G5A U7C G8A U10C C44U A45G,1.53
20,G5A U7C G8A U10C C44U A45C,3.16
21,G5A U7C G8A U10C C44U A45U,1.51
22,G5A U7C G8A U10C A47U G48C,1.6
23,G5A U7C G8A U10C A47U G48U,1.85
24,G5A U7C G8A U10C A47U G48A,1.85

row,Variant,exon inclusion enrichment index
1,G5A U7C G8A U10C C24G A25U,2.8
2,G5A U7C G8A U10C C24G A25C,3.54
3,G5A U7C G8A U10C C24G A25G,1.35
4,G5A U7C G8A U10C C19G,1.88
5,G5A U7C G8A U10C C19U,0.131
6,G5A U7C G8A U10C C19A,1.39
7,G5A U7C G8A U10C C24A A25U,2.06
8,G5A U7C G8A U10C C24A A25C,3.6
9,G5A U7C G8A U10C C24A A25G,2.4
10,G5A U7C G8A U10C A47G G48C,1.13
11,G5A U7C G8A U10C A47G G48A,1.37
12,G5A U7C G8A U10C A47G G48U,0.325
13,G5A U7C G8A U10C A31G U32G,1.52
14,G5A U7C G8A U10C A40C,2.82
15,G5A U7C G8A U10C A40U,1.97
16,G5A U7C G8A U10C A40G,1.93
17,G5A U7C G8A U10C A35G C36U,0.025
18,G5A U7C G8A U10C A35G C36A,1.29
19,G5A U7C G8A U10C A35G C36G,0.306
20,G5A U7C G8A U10C A35U C36U,0.0422
21,G5A U7C G8A U10C A35U C36A,0.00832
22,G5A U7C G8A U10C A35U C36G,0.19
23,G5A U7C G8A U10C A40U G41U,1.26
24,G5A U7C G8A U10C A40U G41C,3.14

row,Variant,exon inclusion enrichment index
1,G5A U7C G8A U10C A40U G41A,0.108
2,G5A U7C G8A U10C C22A A23G,2.59
3,G5A U7C G8A U10C C22A A23U,2.17
4,G5A U7C G8A U10C C22A A23C,3.53
5,G5A U7C G8A U10C A40C G41C,3.47
6,G5A U7C G8A U10C A40C G41U,1.28
7,G5A U7C G8A U10C A40C G41A,0.979
8,G5A U7C G8A U10C C19A A20G,0.441
9,G5A U7C G8A U10C C19A A20C,1.38
10,G5A U7C G8A U10C C19A A20U,0.815
11,G5A U7C G8A U10C A40G G41A,1.12
12,G5A U7C G8A U10C A40G G41U,1.79
13,G5A U7C G8A U10C A40G G41C,3.76
14,G5A U7C G8A U10C A45U G46A,1.75
15,G5A U7C G8A U10C A45U G46U,0.84
16,G5A U7C G8A U10C A45U G46C,1.55
17,G5A U7C G8A U10C C16A U17C,1.83
18,G5A U7C G8A U10C C16A U17A,2.05
19,G5A U7C G8A U10C C16A U17G,1.33
20,G5A U7C G8A U10C C18A C19G,0.297
21,G5A U7C G8A U10C C18A C19A,0.451
22,G5A U7C G8A U10C C18A C19U,0.0739
23,G5A U7C G8A U10C C22G A23G,1.4
24,G5A U7C G8A U10C C22G A23C,1.24

row,Variant,exon inclusion enrichment index
1,G5A U7C G8A U10C C22G A23U,0.522
2,G5A U7C G8A U10C C16A,2.46
3,G5A U7C G8A U10C C16G,1.39
4,G5A U7C G8A U10C C16U,2.53
5,G5A U7C G8A U10C C18U,1.67
6,G5A U7C G8A U10C C18G,2.35
7,G5A U7C G8A U10C C18A,1.35
8,G5A U7C G8A U10C G11C G12A,0.351
9,G5A U7C G8A U10C A47C G48U,2.34
10,G5A U7C G8A U10C A47C G48A,1.74
11,G5A U7C G8A U10C A47C G48C,2.06
12,G5A U7C G8A U10C C16U U17C,1.33
13,G5A U7C G8A U10C C16U U17G,0.815
14,G5A U7C G8A U10C C16U U17A,1.74
15,G5A U7C G8A U10C C36U A37C,1.63
16,G5A U7C G8A U10C C36U A37G,2.16
17,G5A U7C G8A U10C C36U A37U,1.38
18,G5A U7C G8A U10C A37U G38U,0.601
19,G5A U7C G8A U10C A37U G38A,0.876
20,G5A U7C G8A U10C A37U G38C,1.52
21,G5A U7C G8A U10C C44G A45G,0.315
22,G5A U7C G8A U10C C44G A45U,1.92
23,G5A U7C G8A U10C C44G A45C,3.34
